Reference: publication PMC4481117, “The opioid peptide dynorphin A induces leukocyte responses via integrin Mac-1 (αMβ2, CD11b/CD18)” (Molecular Pain, 2015)
cellulose = cellulose membrane support; βAla = NCCC(=O)O

B1: dynorphin AB library peptide, spot 1 (YGGFLRRIR) (peptide)
peptide: Ac-YGGFLRRIR-{βAla-βAla-cellulose}
notes: 9-mer of dynorphin AB; also called peptide #1; source: synthetic peptide, parallel spot synthesis on cellulose membrane
B2: dynorphin AB library peptide, spot 2 (FLRRIRPKL) (peptide)
peptide: Ac-FLRRIRPKL-{βAla-βAla-cellulose}
notes: 9-mer of dynorphin AB; source: synthetic peptide, parallel spot synthesis on cellulose membrane

Columns and labels:
[1] = target: T1, 125I-labeled αMI-domain, active form (αM Glu123-Lys315) (UniProt P11215 139-331, 125I label); assay: peptide or protein array; 9-mer peptides on cellulose membrane (SPOT synthesis), blocked with 1 % BSA, incubated with 10 μg/ml 125I-labeled αMI-domain in TBS with 1 mM MgCl2; autoradiography and densitometry; conditions: both partners purified
T1 construct: also called recombinant αMI-domain; α7 helix-truncated αMI-domain

[2] = target: integrin Mac-1 on IC-21 murine macrophages (mouse (endogenous in IC-21), UniProt P05555 17-1153; P11835 24-771); assay: cell-based or functional assay
Chain of integrin Mac-1 on IC-21 murine macrophages (P05555 17-1153, chain 1 of 2): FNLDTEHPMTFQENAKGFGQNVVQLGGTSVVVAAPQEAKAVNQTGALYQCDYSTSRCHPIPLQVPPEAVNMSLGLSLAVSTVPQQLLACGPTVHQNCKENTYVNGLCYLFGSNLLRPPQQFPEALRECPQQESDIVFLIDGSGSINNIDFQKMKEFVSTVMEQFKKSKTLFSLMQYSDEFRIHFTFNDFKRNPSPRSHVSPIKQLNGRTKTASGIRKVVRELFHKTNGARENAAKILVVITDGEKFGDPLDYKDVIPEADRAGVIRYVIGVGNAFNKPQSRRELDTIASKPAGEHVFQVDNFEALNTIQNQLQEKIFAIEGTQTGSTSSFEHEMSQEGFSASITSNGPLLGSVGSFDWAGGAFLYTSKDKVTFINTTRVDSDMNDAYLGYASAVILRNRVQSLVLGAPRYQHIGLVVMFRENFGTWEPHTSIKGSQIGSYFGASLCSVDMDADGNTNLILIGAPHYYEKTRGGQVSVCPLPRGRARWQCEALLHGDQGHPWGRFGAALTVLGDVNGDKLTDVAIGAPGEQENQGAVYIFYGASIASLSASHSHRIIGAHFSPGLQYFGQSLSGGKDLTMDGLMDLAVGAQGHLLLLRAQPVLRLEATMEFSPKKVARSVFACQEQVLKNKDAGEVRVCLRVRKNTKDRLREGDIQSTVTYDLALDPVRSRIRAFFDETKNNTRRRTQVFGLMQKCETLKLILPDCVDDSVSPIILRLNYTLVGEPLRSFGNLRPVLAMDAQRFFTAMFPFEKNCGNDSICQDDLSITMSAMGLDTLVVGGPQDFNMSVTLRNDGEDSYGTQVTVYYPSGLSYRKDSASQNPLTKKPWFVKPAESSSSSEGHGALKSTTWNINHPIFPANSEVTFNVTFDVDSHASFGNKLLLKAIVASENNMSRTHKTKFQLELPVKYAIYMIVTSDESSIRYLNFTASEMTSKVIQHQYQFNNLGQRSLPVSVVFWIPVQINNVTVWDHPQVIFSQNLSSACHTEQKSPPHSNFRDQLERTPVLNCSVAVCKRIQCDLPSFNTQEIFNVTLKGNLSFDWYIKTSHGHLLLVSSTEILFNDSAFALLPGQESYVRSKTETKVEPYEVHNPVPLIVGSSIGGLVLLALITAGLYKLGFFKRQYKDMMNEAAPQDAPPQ
Chain of integrin Mac-1 on IC-21 murine macrophages (P11835 24-771, chain 2 of 2): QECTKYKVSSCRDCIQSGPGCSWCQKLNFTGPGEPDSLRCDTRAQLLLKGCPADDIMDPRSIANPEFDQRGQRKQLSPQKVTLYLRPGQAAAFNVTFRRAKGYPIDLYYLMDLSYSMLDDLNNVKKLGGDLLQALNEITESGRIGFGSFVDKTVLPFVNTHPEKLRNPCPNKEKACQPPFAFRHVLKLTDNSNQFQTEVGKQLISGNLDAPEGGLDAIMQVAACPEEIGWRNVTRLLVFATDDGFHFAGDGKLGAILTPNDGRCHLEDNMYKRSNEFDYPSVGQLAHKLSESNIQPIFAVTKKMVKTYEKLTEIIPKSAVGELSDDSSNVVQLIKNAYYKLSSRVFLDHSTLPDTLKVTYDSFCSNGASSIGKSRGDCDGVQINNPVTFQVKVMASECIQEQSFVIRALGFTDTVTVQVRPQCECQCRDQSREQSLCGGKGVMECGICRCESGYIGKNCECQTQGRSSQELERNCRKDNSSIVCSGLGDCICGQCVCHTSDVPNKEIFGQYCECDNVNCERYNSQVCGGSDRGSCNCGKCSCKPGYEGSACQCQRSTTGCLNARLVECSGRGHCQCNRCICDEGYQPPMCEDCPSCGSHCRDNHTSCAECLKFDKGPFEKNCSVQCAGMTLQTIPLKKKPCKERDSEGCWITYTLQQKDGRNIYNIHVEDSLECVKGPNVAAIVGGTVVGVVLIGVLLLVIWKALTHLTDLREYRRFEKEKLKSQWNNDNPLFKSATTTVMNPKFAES

T1 sequence (P11215 139-331): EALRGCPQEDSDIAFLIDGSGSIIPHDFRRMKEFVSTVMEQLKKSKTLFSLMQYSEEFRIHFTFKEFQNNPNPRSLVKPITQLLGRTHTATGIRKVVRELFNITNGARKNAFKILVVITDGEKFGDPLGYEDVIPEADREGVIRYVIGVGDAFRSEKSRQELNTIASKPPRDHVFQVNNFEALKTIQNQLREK

Row | Binder | binding result [1] | phagocytosis of Dyn A-treated fluorescent latex beads by IC-21 murine macrophages, against control beads [2]
1 | B1 | binds | –
2 | YGGFLRRIRPKLKWDNQ [dynorphin A] | – | ~10 fold
3 | B2 | binds | –
